The record followed here is patent US20130071400A1, “LINGO binding molecules and Pharmaceutical Use Thereof” (NOVARTIS AG, priority 2006, published 2013).

The assay has as its system binding of LINGO-1 to NgR. Kind of assay: AP-LINGO-1 binding assay (AP-LINGO-1 binding to NgR:SH-SY5Y cells). On the set-up: species or system rat. The note with it: 2 μM Fab, 1 nM AP-LINGO-1; normalized to control Fab 3207; p<0.01 (FIG. 1). The method, then:
NgR:SH-SY5Y cells in suspension are incubated with either 1 nM AP or AP-LINGO-1 in the absence or presence of 2 μM of the indicated anti-LINGO-1 Fab or anti-hen lysozyme Fab 3207. Bound AP activity on the cells is measured as absorbance at 405 nm after a 30 min incubation with 1-Step™ PNPP. The specific binding of AP-LINGO-1 is calculated as the difference between the total amount of AP-LINGO-1 binding and the amount of binding with AP alone. The mean percentage inhibition of specific binding (n=3, ±STD) is calculated as the percentile difference between the amount of specific binding of AP-LINGO-1 in the presence of Fab 3207 and the presence of an anti-LINGO-1 Fab.
The PCR product is cleaved with XhoI and XbaI and inserted into the respective sites of the vector APtag-5-NHIS (SEQ ID NO: 26) to generate APtag-5-NHIS-solrLINGO-1. The predicted protein product is the majority of the rat LINGO-1 ectodomain fused at the N-terminus to residues 23-511 of human placental alkaline phosphatase via a 3 amino acid residue linker. […] AP activity of the concentrated supernatant is measured using 1-Step™ PNPP (Pierce) as change in absorbance at 405 nm over time and transformed to a concentration using the following equation (applies for a 96 well plate format with 200 μl PNPP/well): […]

binding of LINGO-1 to NgR, sequence (as listed by the source): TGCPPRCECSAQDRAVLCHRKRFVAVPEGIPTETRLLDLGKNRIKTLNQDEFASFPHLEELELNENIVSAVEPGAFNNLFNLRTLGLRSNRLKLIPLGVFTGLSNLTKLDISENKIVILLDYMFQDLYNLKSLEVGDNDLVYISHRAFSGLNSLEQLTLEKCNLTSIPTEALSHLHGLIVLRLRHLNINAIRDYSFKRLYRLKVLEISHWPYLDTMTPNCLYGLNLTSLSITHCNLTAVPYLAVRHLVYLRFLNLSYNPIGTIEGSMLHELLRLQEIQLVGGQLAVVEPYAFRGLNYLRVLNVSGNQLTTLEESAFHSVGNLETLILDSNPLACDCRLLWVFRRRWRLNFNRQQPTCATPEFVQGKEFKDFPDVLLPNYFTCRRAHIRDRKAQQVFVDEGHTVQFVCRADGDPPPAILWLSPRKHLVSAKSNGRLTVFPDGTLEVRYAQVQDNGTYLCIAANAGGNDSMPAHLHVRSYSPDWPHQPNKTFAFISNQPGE

B1: IgG4 4784: monoclonal human anti-LINGO-1 IgG4 antibody; VL SEQ ID NO: 4, VH SEQ ID NO: 5 (antibody, V domains shown)
VH: QVQLKESGPALVKPTQTLTLTCTFSGFSLSSSGVGVGWIRQPPGKALEWLAHIGSDDDKYYSTSLKTRLTISKDTSKNQVVLTMTNMDPVDTATYYCARNQQYGDGYPGYFDYWGQGTLVTVSS
VL: DIELTQPPSVSVAPGQTARISCSGDNIGNYYVYWYQQKPGQAPVLVIYEDTNRPSGIPERFSGSNSGNTATLTISGTQAEDEADYYCQSYDNLHEQVFGGGTKLTVLG
modifications: IgG4; 4784 VH; 4784 VL
For the molecule B1, the “inhibition of specific AP-LINGO-1 binding to NgR:SH-SY5Y cells” value is “significantly inhibit”.

B2: IgG4 4785: monoclonal human anti-LINGO-1 IgG4 antibody; VL SEQ ID NO: 6, VH SEQ ID NO: 7 (antibody, V domains shown)
VH: QVQLQQSGPGLVKPSQTLSLTCAISGDSVSDNSAAWSWIRQSPGRGLEWLGLIYLRSKWDNDYAVSVKSRITINPDTSKNQFSLQLNSVTPEDTAVYYCARTGRADEFDVWGQGTLVTVSS
VL: DIVLTQPPSVSGAPGQRVTISCSGSSSNIGNNYVSWYQQLPGTAPKLLISRNSKRPSGVPDRFSGSKSGTSASLAITGLQSEDEADYYCSTYDTFSIVFGGGTKLTVLG
modifications: IgG4; 4785 VH; 4785 VL
With B2, the “inhibition of specific AP-LINGO-1 binding to NgR:SH-SY5Y cells” value was “significantly inhibit”.
